Test results taken from patent publication US20220218752A1 (University of Washington, published 2022).

B1: Bim_EGFR (EGFR DARPin tagged with N-terminal Bim peptide) (designed binder)
chain: MGSHHHHHHGSGSENLYFQGSTDEIWIAQELRRIGDEFNAYYASGSGDLGKKLLEAARAGQDDEVRILMANGADVNADDTWGWTPLHLAAYQGHLEIVEVLLKNGADVNAYDYIGWTPLHLAADGHLEIVEVLLKNGADVNASDYIGDTPLHLAAHNGHLEIVEVLLKHGADVNAQDKFGKTAFDISIDNGNEDLAEILQKLN
notes: also called anti-EGFR DARPin with N-terminal fusion to Bim; Bim-DARPin
B2: Bim_Her2 (Her2 DARPin tagged with N-terminal Bim peptide) (designed binder)
chain: MGSHHHHHHGSGSENLYFQGSTDEIWIAQELRRIGDEFNAYYASGSGDLGKKLLEAARAGQDDEVRILMANGADVNAKDEYGLTPLYLATAHGHLEIVEVLLKNGADVNAVDAIGFTPLHLAAFIGHLEIAEVLLKHGADVNAQDKFGKTAFDISIGNGNEDLAEILQKLN
notes: also called anti-Her2 DARPin with N-terminal fusion to Bim; Bim-DARPin

Experiments:
[1] = biological target: T1, EGFR-iRFP (hsEGFR_ecd_tm-iRFP) (human (printed as hs)); test: flow cytometry on mixed K562 cells expressing Her2-eGFP, EGFR-iRFP, both or neither; DARPin pre-complexed with Bcl2-AF594, 3-fold dilutions from 300 nM to 0.4 nM
T1 construct: EGFR ectodomain and transmembrane region fused to iRFP, expressed on K562 cells by lentiviral transduction; also called K562/EGFR
T1 sequence (chain, as listed by the source limits assumed): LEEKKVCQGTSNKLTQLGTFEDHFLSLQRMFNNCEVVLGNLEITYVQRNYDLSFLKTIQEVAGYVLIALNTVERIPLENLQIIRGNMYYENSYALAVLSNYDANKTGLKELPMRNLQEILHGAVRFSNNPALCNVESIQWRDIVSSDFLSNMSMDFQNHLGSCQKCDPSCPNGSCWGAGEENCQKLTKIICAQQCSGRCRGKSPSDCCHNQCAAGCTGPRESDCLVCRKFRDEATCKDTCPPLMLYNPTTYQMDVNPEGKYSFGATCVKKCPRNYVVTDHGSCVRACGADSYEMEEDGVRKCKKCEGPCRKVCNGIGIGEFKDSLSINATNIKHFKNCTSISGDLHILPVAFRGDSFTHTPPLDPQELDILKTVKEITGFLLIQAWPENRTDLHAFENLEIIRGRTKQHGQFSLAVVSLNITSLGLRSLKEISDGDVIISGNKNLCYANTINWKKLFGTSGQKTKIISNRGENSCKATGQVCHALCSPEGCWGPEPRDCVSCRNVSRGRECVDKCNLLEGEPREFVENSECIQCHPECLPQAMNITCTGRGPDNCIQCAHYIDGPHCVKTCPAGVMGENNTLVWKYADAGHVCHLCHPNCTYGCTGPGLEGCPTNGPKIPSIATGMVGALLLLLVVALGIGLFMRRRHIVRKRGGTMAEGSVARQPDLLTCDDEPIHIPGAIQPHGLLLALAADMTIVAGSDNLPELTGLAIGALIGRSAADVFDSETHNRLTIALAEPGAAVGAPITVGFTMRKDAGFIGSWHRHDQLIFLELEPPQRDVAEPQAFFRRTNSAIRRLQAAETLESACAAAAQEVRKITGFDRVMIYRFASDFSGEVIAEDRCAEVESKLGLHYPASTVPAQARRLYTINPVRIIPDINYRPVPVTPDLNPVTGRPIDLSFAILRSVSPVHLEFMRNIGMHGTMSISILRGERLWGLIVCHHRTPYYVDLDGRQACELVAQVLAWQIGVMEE
Procedure: (§1) FIG. 21. DARPin binder affinity measured by flow cytometry. Anti-Her2 or anti-EGFR DARPins with N-terminal fusions to Bim were pre-complexed with Bcl2-AF594 and serially diluted 3-fold from 300 nM down to 0.4 nM. This dilution series was used to label a mixed population of K562 cells expressing Her2-eGFP, EGFR-iRFP, both, or neither for one hour at room temperature in a 50 μl incubation volume. The cells were then washed in PBS supplemented with 0.1% bovine serum albumin and analyzed on an LSRII flow cytometer.

[2] = biological target: T2, Her2-eGFP (hsHER2_ecd_tm-eGFP) (human (printed as hs)); test: as above
T2 construct: Her2 ectodomain and transmembrane region fused to eGFP, expressed on K562 cells by lentiviral transduction; also called K562/Her2
Procedure: as §1

| Binder | Kd [1] | Kd [2] |
| --- | --- | --- |
| B1 | ~0.01 µM |  |
| B2 |  | ~0.01 µM |
